{"source": "paper PMC2865030", "about": "(Biochemical Journal, 2008)", "binders": {"B1": {"name": "Tah1 (TPR-containing protein associated with Hsp90) (natural protein)", "chain": "MSQFEKQKEQGNSLFKQGLYREAVHCYDQLITAQPQNPVGYSNKAMALIKLGEYTQAIQMCQQGLRYTSTAEHVAIRSKLQYRLELAQGAVGSVQIPVVEVDELPEGYDRS"}}, "test_in_all_cases": "ITC", "key": {"[1]": {"target": "yeast Ssa1 (Hsp70, His-tagged) (yeast, UniProt P10591 1-642)", "sequence (P10591 whole entry)": "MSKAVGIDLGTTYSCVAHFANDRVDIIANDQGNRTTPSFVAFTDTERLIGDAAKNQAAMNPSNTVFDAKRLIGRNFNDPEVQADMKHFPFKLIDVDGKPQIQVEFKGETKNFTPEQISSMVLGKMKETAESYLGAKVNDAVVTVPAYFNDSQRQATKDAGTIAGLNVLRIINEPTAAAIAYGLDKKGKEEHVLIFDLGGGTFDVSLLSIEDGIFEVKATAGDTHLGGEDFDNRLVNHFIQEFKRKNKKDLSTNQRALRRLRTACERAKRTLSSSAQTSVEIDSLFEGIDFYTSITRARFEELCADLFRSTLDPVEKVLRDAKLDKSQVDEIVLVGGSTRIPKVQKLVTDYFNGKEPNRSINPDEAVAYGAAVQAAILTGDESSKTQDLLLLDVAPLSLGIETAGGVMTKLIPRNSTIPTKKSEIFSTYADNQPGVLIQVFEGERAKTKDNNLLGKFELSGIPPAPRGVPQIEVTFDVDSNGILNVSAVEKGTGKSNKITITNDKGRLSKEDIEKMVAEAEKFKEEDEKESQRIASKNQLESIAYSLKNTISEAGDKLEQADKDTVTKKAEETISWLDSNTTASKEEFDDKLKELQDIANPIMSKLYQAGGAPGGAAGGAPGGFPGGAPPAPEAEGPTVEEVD"}, "human Hsp90α": {"target": "human Hsp90α (human, UniProt P07900 1-732)"}, "[2]": {"target": "human Hsp90β (His-tagged) (human, UniProt P08238 1-724)", "sequence (P08238 whole entry)": "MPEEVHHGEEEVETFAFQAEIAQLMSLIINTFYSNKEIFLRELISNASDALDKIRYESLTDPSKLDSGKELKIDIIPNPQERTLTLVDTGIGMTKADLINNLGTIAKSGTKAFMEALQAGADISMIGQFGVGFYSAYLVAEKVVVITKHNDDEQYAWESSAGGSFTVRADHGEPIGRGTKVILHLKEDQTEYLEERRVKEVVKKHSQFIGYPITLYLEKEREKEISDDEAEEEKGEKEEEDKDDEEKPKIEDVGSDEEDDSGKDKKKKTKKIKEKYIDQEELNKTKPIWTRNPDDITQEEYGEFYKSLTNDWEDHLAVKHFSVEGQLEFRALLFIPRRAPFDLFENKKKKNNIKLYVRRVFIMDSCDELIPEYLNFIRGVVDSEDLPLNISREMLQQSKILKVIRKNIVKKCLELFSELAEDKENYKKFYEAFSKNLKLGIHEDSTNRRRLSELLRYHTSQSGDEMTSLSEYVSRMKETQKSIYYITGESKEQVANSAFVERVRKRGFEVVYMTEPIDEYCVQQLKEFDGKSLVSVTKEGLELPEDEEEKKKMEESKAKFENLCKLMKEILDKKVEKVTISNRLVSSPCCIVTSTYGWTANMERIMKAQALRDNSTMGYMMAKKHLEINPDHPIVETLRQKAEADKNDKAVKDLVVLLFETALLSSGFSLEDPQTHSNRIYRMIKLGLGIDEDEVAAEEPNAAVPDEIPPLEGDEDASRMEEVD"}, "[3]": {"target": "B1"}}, "data": [{"binder": "B1", "values": [{"measurement": "Kd", "setting": "[1]", "result": "16 ± 2.5", "unit": "µM"}, {"measurement": "Kd", "setting": "human Hsp90α", "result": "0.33 ± 0.03", "unit": "µM"}, {"measurement": "stoichiometry N", "setting": "human Hsp90α", "result": 1.1}, {"measurement": "Kd", "setting": "[2]", "result": "0.34 ± 0.07", "unit": "µM"}, {"measurement": "stoichiometry N", "setting": "[2]", "result": 0.84}]}, {"binder": "EDASRMEEVD", "note": "[EDASRMEEVD decapeptide (C-terminal end of human Hsp90β)]", "values": [{"measurement": "Kd", "setting": "[3]", "result": "1 ± 0.19", "unit": "µM"}, {"measurement": "stoichiometry N", "setting": "[3]", "result": 0.81}]}, {"binder": "PTVEEVD", "note": "[PTVEEVD heptapeptide (C-terminal end of Ssa1)]", "values": [{"measurement": "Kd", "setting": "[3]", "result": "10.6 ± 1.4", "unit": "µM"}, {"measurement": "stoichiometry N", "setting": "[3]", "result": 1}]}, {"binder": "DDTSRMEEVD", "note": "[DDTSRMEEVD decapeptide (C-terminal end of human Hsp90α)]", "values": [{"measurement": "Kd", "setting": "[3]", "result": "0.9 ± 0.06", "unit": "µM"}, {"measurement": "stoichiometry N", "setting": "[3]", "result": 1.1}]}, {"binder": "MEEVD", "note": "[MEEVD pentapeptide (C-terminal end of yeast Hsp90)]", "values": [{"measurement": "stoichiometry N", "setting": "[3]", "result": 1.1}]}, {"binder": "VEEVD", "note": "[VEEVD pentapeptide (C-terminal end of Ssa1)]", "values": [{"measurement": "Kd", "setting": "[3]", "result": "48.8 ± 5.5", "unit": "µM"}]}, {"binder": "AEGPTVEEVD", "note": "[AEGPTVEEVD decapeptide (C-terminal end of Ssa1, wild-type sequence)]", "values": [{"measurement": "Kd", "setting": "[3]", "result": "28.9 ± 3.1", "unit": "µM"}, {"measurement": "stoichiometry N", "setting": "[3]", "result": 1.2}]}, {"binder": "TEMEEVD", "note": "[TEMEEVD heptapeptide (C-terminal end of yeast Hsp90)]", "values": [{"measurement": "Kd", "setting": "[3]", "result": "0.95 ± 0.04", "unit": "µM"}, {"measurement": "stoichiometry N", "setting": "[3]", "result": 1.2}]}]}
